Experimental findings from the supplement of paper PMC5998384 are described below.

Series [1] relates to HeLa Kyoto. The series can be described thus: solubility in G1/S (NP-40 vs SDS abundance) (log2 ratio); higher = more soluble. Conditions: cell cycle stage: G1/S.
In series [2] the test system is HeLa Kyoto. The series can be described thus: melting temperature (median over replicates), in situ; higher = more thermally stable.
Series [3] relates to HeLa Kyoto. The series can be described thus: solubility change mitosis vs G1/S (difference of NP-40 vs SDS log2 ratios) (log2 ratio difference); higher = more soluble in mitosis.
The test system of series [4] is HeLa Kyoto. The series can be described thus: thermal stability score vs G1/S (z-score of summed log2 fold changes over temperatures); higher = more thermally stable than in G1/S.
Setting [5] is: cell cycle stage: early G1 (4.5 h after nocodazole release).
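Wherever melting temperature (median over replicates), in situ is given: HeLa Kyoto cells synchronized by double thymidine or nocodazole block, proteins quantified by TMT10plex mass spectrometry, three independent biological replicates.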
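Wherever solubility change mitosis vs G1/S (difference of NP-40 vs SDS log2 ratios) is given: synchronized HeLa Kyoto cells (double thymidine block for G1/S, nocodazole release for mitosis), protein amounts in NP-40 versus SDS lysates quantified by mass spectrometry, three biological replicates.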
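Wherever solubility in G1/S (NP-40 vs SDS abundance) is given: HeLa Kyoto cells arrested at G1/S by double thymidine block, proteins quantified by TMT10plex mass spectrometry in mild NP-40 versus SDS extracts, three biological replicates.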
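Wherever thermal stability score vs G1/S (z-score of summed log2 fold changes over temperatures) is given: synchronized HeLa Kyoto cells, proteins quantified by TMT10plex mass spectrometry, three biological replicates, mitosis taken 0.5 h after nocodazole release, G1/S directly after double thymidine block.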

“MAAAAVAAAAAAAAAASLQVLEMESMETAAAGSAGLAAEVRGSGTVDFGPGPGISAMEASGGDPGPEAEDFECSSHCSELSWRQNEQRRQGLFCDITLCFGGAGGREFRAHRSVLAAATEYFTPLLSGQFSESRSGRVEMRKWSSEPGPEPDTVEAVIEYMYTGRIRVSTGSVHEVLELADRFLLIRLKEFCGEFLKKKLHLSNCVAIHSLAHMYTLSQLALKAADMIRRNFHKVIQDEEFYTLPFHLIRDWLSDLEITVDSEEVLFETVLKWVQRNAEERERYFEELFKLLRLSQMKPTYLTRHVKPERLVANNEVCVKLVADAVERHALRAENIQSGTCQHPTSHVSLLPRYGQNMDVIMVIGGVSEGGDYLSECVGYFVDEDRWVNLPHIHNHLDGHAVAVTESYVYVAGSMEPGFAKTVERYNPNLNTWEHVCSLMTRKHSFGLTEVKGKLYSIGGHGNFSPGFKDVTVYNPELDKWHNLESAPKILRDVKALAIEDRFVYIAARTPVDRDTEDGLKAVITCYDTETRQWQDVESLPLIDNYCFFQMSVVNSNFYQTASCCPKSYCLENEEAVRKIASQVSDEILESLPPEVLSIEGAAICYYKDDVFIIGGWKNSDDIDKQYRKEAYRYCAERKRWMLLPPMPQPRCRATACHVRIPYRYLHGTQRYPMPQNLMWQKDRIRQMQEIHRHALNMRRVPSSQIEC [KLHL11]”: in the series on HeLa Kyoto [1], the “solubility in G1/S (log2)” value is -0.226. The melting temperature in the series on HeLa Kyoto [2] (cell cycle stage: G1/S) was 51.8 °C; in the series with HeLa Kyoto [2] (cell cycle stage: mitosis), 50.7 °C. The “solubility change mitosis (log2)” value in the series with HeLa Kyoto [3] is -0.089. Further, the thermal stability score in the series on HeLa Kyoto [4] (setting [5]) was found to be 0.384; in the series with HeLa Kyoto [4] (cell cycle stage: mitosis), 0.29.

“MPDENIFLFVPNLIGYARIVFAIISFYFMPCCPLTASSFYLLSGLLDAFDGHAARALNQGTRFGAMLDMLTDRCSTMCLLVNLALLYPGATLFFQISMSLDVASHWLHLHSSVVRGSESHKMIDLSGNPVLRIYYTSRPALFTLCAGNELFYCLLYLFHFSEGPLVGSVGLFRMGLWVTAPIALLKSLISVIHLITAARNMAALDAADRAKKK [CDIPT]”: the “solubility in G1/S (log2)” value in the series with HeLa Kyoto [1] is -0.0899. Moreover, the melting temperature is 54.7 °C in the series on HeLa Kyoto [2] (cell cycle stage: G1/S) and 59.4 °C with HeLa Kyoto [2] (cell cycle stage: mitosis). In the series on HeLa Kyoto [3], the “solubility change mitosis (log2)” value is -0.0289. Also, the thermal stability score in the series with HeLa Kyoto [4] (setting [5]) is -2.08; in the series on HeLa Kyoto [4] (cell cycle stage: mitosis), -1.66.

For “MAMGLFRVCLVVVTAIINHPLLFPRENATVPENEEEIIRKMQAHQEKLQLEQLRLEEEVARLAAEKEALEQVAEEGRQQNETRVAWDLWSTLCMILFLMIEVWRQDHQEGPSPECLGGEEDELPGLGGAPLQGLTLPNKATLGHFYERCIRGATADAARTREFLEGFVDDLLEALRSLCNRDTDMEVEDFIGVDSMYENWQVDRPLLCHLFVPFTPPEPYRFHPELWCSGRSVPLDRQGYGQIKVVRADGDTLSCICGKTKLGEDMLCLLHGRNSMAPPCGDMENLLCATDSLYLDTMQVMKWFQTALTRAWKGIAHKYEFDLAFGQLDSPGSLKIKFRSGKFMPFNLIPVIQCDDSDLYFVSHLPREPSEGTPASSTDWLLSFAVYERHFLRTTLKALPEGACHLSCLQIASFLLSKQSRLTGPSGLSSYHLKTALLHLLLLRQAADWKAGQLDARLHELLCFLEKSLLQKKLHHFFIGNRKVPEAMGLPEAVLRAEPLNLFRPFVLQRSLYRKTLDSFYEMLKNAPALISEYSLHVPSDQPTPKS [ITPRIP]”, the “solubility in G1/S (log2)” value in the series with HeLa Kyoto [1] was found to be 0.169. Further, the melting temperature in the series with HeLa Kyoto [2] (cell cycle stage: G1/S) is 52 °C. In addition, the “solubility change mitosis (log2)” value with HeLa Kyoto [3] is -0.1. Moreover, the results for the thermal stability score in the series on HeLa Kyoto [4] (setting [5]) and with HeLa Kyoto [4] (cell cycle stage: mitosis) were -0.0632 and -0.00908, respectively.

For “MADKVRRQRPRRRVCWALVAVLLADLLALSDTLAVMSVDLGSESMKVAIVKPGVPMEIVLNKESRRKTPVIVTLKENERFFGDSAASMAIKNPKATLRYFQHLLGKQADNPHVALYQARFPEHELTFDPQRQTVHFQISSQLQFSPEEVLGMVLNYSRSLAEDFAEQPIKDAVITVPVFFNQAERRAVLQAARMAGLKVLQLINDNTATALSYGVFRRKDINTTAQNIMFYDMGSGSTVCTIVTYQMVKTKEAGMQPQLQIRGVGFDRTLGGLEMELRLRERLAGLFNEQRKGQRAKDVRENPRAMAKLLREANRLKTVLSANADHMAQIEGLMDDVDFKAKVTRVEFEELCADLFERVPGPVQQALQSAEMSLDEIEQVILVGGATRVPRVQEVLLKAVGKEELGKNINADEAAAMGAVYQAAALSKAFKVKPFVVRDAVVYPILVEFTREVEEEPGIHSLKHNKRVLFSRMGPYPQRKVITFNRYSHDFNFHINYGDLGFLGPEDLRVFGSQNLTTVKLKGVGDSFKKYPDYESKGIKAHFNLDESGVLSLDRVESVFETLVEDSAEEESTLTKLGNTISSLFGGGTTPDAKENGTDTVQEEEESPAEGSKDEPGEQVELKEEAEAPVEDGSQPPPPEPKGDATPEGEKATEKENGDKSEAQKPSEKAEAGPEGVAPAPEGEKKQKPARKRRMVEEIGVELVVLDLPDLPEDKLAQSVQKLQDLTLRDLEKQEREKAANSLEAFIFETQDKLYQPEYQEVSTEEQREEISGKLSAASTWLEDEGVGATTVMLKEKLAELRKLCQGLFFRVEERKKWPERLSALDNLLNHSSMFLKGARLIPEMDQIFTEVEMTTLEKVINETWAWKNATLAEQAKLPATEKPVLLSKDIEAKMMALDREVQYLLNKAKFTKPRPRPKDKNGTRAEPPLNASASDQGEKVIPPAGQTEDAEPISEPEKVETGSEPGDTEPLELGGPGAEPEQKEQSTGQKRPLKNDEL [HYOU1]”, the “solubility in G1/S (log2)” value with HeLa Kyoto [1] came to 0.402. Moreover, the melting temperature turned out to be 54.1 °C in the series on HeLa Kyoto [2] (cell cycle stage: G1/S) and 54.4 °C with HeLa Kyoto [2] (cell cycle stage: mitosis). Also, the “solubility change mitosis (log2)” value in the series on HeLa Kyoto [3] is -0.0667. Moreover, the values for the thermal stability score in the series on HeLa Kyoto [4] (setting [5]) and in the series on HeLa Kyoto [4] (cell cycle stage: mitosis) were 3.86 and 5.24, respectively.

Turning to “MGVQGFQDYIEKHCPSAVVPVELQKLARGSLVGGGRQRPPQTPLRLLVDADNCLHRLYGGFYTDWVSGGQWNHMLGYLAALAKACFGGNIELFVFFNGALEKARLHEWVKRQGNERQTAQQIVSHVQNKGTPPPKVWFLPPVCMAHCIRLALIRFHVKVAQSIEDHHQEVIGFCRENGFHGLVAYDSDYALCNIPYYFSAHALKLSRNGKSLTTSQYLMHEVAKQLDLNPNRFPIFAALLGNHILPDEDLASFHWSLLGPEHPLASLKVRAHQLVLPPCDVVIKAVADYVRNIQDTSDLDAIAKDVFQHSQSRTDDKVIRFKRAIGYYSATSKPMSFHPPHYLAARPGPFGMPGMVPPHVPPQMLNIPQTSLQAKPVAPQVPSPGGAPGQGPYPYSLSEPAPLTLDTSGKNLTEQNSYSNIPHEGKHTPLYERSSPINPAQSGSPNHVDSAYFPGSSTSSSSDNDEGSGGATNHISGNKIGWEKTGSHSEPQARGDPGDQTKAEGSSTASSGSQLAEGKGSQMGTVQPIPCLLSMPTRNHMDITTPPLPPVAPEVLRVAEHRHKKGLMYPYIFHVLTKGEIKIAVSIEDEANKDLPPAALLYRPVRQYVYGVLFSLAESRKKTERLAFRKNRLPPEFSPVIIKEWAAYKGKSPQTPELVEALAFREWTCPNLKRLWLGKAVEDKNRRMRAFLACMRSDTPAMLNPANVPTHLMVLCCVLRYMVQWPGARILRRQELDAFLAQALSPKLYEPDQLQELKIENLDPRGIQLSALFMSGVDMALFANDACGQPIPWEHCCPWMYFDGKLFQSKLLKASREKTPLIDLCDGQADQAAKVEKMRQSVLEGLSFSRQSHTLPFPPPPALPFYPASAYPRHFGPVPPSQGRGRGFAGVCGFGGPYGETVATGPYRAFRVAAASGHCGAFSGSDSSRTSKSQGGVQPIPSQGGKLEIAGTVVGHWAGSRRGRGGRGPFPLQVVSVGGPARGRPRGVISTPVIRTFGRGGRYYGRGYKNQAAIQGRPPYAASAEEVAKELKSKSGESKSSAMSSDGSLAENGVMAEEKPAPQMNGSTGDARAPSHSESALNNDSKTCNTNPHLNALSTDSACRREAALEAAVLNKEE [FAM120A]”, the “solubility in G1/S (log2)” value in the series on HeLa Kyoto [1] was -0.143. Moreover, the melting temperature with HeLa Kyoto [2] (cell cycle stage: G1/S) was 50.9 °C; with HeLa Kyoto [2] (cell cycle stage: mitosis), 50.6 °C. Moreover, in the series with HeLa Kyoto [3], the “solubility change mitosis (log2)” value is -0.0663. The thermal stability score in the series with HeLa Kyoto [4] (setting [5]) is -0.707; in the series with HeLa Kyoto [4] (cell cycle stage: mitosis) it was -2.24.

Turning to “MGSRVSREDFEWVYTDQPHADRRREILAKYPEIKSLMKPDPNLIWIIIMMVLTQLGAFYIVKDLDWKWVIFGAYAFGSCINHSMTLAIHEIAHNAAFGNCKAMWNRWFGMFANLPIGIPYSISFKRYHMDHHRYLGADGVDVDIPTDFEGWFFCTAFRKFIWVILQPLFYAFRPLFINPKPITYLEVINTVAQVTFDILIYYFLGIKSLVYMLAASLLGLGLHPISGHFIAEHYMFLKGHETYSYYGPLNLLTFNVGYHNEHHDFPNIPGKSLPLVRKIAAEYYDNLPHYNSWIKVLYDFVMDDTISPYSRMKRHQKGEMVLE [DEGS1]”, the “solubility in G1/S (log2)” value in the series on HeLa Kyoto [1] is -0.186. In addition, the results for the melting temperature in the series on HeLa Kyoto [2] (cell cycle stage: G1/S) and in the series on HeLa Kyoto [2] (cell cycle stage: mitosis) were 55 °C and 55.2 °C, respectively. Besides, the “solubility change mitosis (log2)” value with HeLa Kyoto [3] is -0.264. The thermal stability score with HeLa Kyoto [4] (setting [5]) is -0.898; in the series with HeLa Kyoto [4] (cell cycle stage: mitosis) it was -1.88.
